# Reference: IntAct's records for PubMed 21360678
# B1: Serine/threonine-protein phosphatase 5 (Homo sapiens), P53041 (parent)
# chain: MAMAEGERTECAEPPRDEPPADGALKRAEELKTQANDYFKAKDYENAIKFYSQAIELNPSNAIYYGNRSLAYLRTECYGYALGDATRAIELDKKYIKGYYRRAASNMALGKFRAALRDYETVVKVKPHDKDAKMKYQECNKIVKQKAFERAIAGDEHKRSVVDSLDIESMTIEDEYSGPKLEDGKVTISFMKELMQWYKDQKKLHRKCAYQILVQVKEVLSKLSTLVETTLKETEKITVCGDTHGQFYDLLNIFELNGLPSETNPYIFNGDFVDRGSFSVEVILTLFGFKLLYPDHFHLLRGNHETDNMNQIYGFEGEVKAKYTAQMYELFSEVFEWLPLAQCINGKVLIMHGGLFSEDGVTLDDIRKIERNRQPPDSGPMCDLLWSDPQPQNGRSISKRGVSCQFGPDVTKAFLEENNLDYIIRSHEVKAEGYEVAHGGRCVTVFSAPNYCDQMGNKASYIHLQGSDLRPQFHQFTAVPHPNVKPMAYANTLLQLGMM
# partner: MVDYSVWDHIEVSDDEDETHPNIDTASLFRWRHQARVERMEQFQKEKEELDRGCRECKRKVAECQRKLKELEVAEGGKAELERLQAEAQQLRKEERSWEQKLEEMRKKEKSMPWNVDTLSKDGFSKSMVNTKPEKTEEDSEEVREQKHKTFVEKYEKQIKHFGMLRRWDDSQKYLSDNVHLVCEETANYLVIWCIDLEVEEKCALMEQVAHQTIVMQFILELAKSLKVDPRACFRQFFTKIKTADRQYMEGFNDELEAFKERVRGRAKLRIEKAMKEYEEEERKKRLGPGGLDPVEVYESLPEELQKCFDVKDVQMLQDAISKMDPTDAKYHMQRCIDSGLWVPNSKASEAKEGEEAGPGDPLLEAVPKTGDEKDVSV
# Variants of: B1
# Conditions: with cdc37_human CDC37, Q16543
row,Variant,effect of a mutation on the interaction
1,MAMAEGERTECAEPPRDEPPADGALKRAEELKTQANDYFKAKDYENAIKFYSQAIELNPSNAIYYGNRSLAYLRTECYGYALGDATRAIELDKKYIAGYYARAASNMALGKFRAALRDYETVVKVKPHDKDAKMKYQECNKIVKQKAFERAIAGDEHKRSVVDSLDIESMTIEDEYSGPKLEDGKVTISFMKELMQWYKDQKKLHRKCAYQILVQVKEVLSKLSTLVETTLKETEKITVCGDTHGQFYDLLNIFELNGLPSETNPYIFNGDFVDRGSFSVEVILTLFGFKLLYPDHFHLLRGNHETDNMNQIYGFEGEVKAKYTAQMYELFSEVFEWLPLAQCINGKVLIMHGGLFSEDGVTLDDIRKIERNRQPPDSGPMCDLLWSDPQPQNGRSISKRGVSCQFGPDVTKAFLEENNLDYIIRSHEVKAEGYEVAHGGRCVTVFSAPNYCDQMGNKASYIHLQGSDLRPQFHQFTAVPHPNVKPMAYANTLLQLGMM [K97A;R101A],disrupting interaction
